This note sets out measurements from article PMC10786891, “Massively parallel profiling of RNA-targeting CRISPR-Cas13d”.

Sequences and labels used below:
B1: target 1 C7A,A9C (mixed)
RNA 1: CACCCGUGCAAAAAUGCAGGGGUCUAAAACUGAGCGGAUAACCUCUCUAUGG
RNA 2: GGGAAUGGAUCCACAUCUACGAAUUCGUACCAUAGAGAGGUUCUACGCUCACCGAGAUCGGAAGAGCACACGU
B2: target 1 insG 3' of 6,insG 3' of 1 (mixed)
RNA 1: CACCCGUGCAAAAAUGCAGGGGUCUAAAACUGAGCGGAUAACCUCUCUAUGG
RNA 2: GGGAAUGGAUCCACAUCUACGAAUUCGUACCAUAGAGAGGUUAUCCGGCUCAGCCGAGAUCGGAAGAGCACACGU
B3: target 1 insU 3' of 9,insA 3' of 3 (mixed)
RNA 1: CACCCGUGCAAAAAUGCAGGGGUCUAAAACUGAGCGGAUAACCUCUCUAUGG
RNA 2: GGGAAUGGAUCCACAUCUACGAAUUCGUACCAUAGAGAGGUUAUUCCGCUACACCGAGAUCGGAAGAGCACACGU
B4: target 1 insA 3' of 10,insG 3' of 8 (mixed)
RNA 1: CACCCGUGCAAAAAUGCAGGGGUCUAAAACUGAGCGGAUAACCUCUCUAUGG
RNA 2: GGGAAUGGAUCCACAUCUACGAAUUCGUACCAUAGAGAGGUUAAUGCCGCUCACCGAGAUCGGAAGAGCACACGU
B5: target 1 insA 3' of 13,insA 3' of 7 (mixed)
RNA 1: CACCCGUGCAAAAAUGCAGGGGUCUAAAACUGAGCGGAUAACCUCUCUAUGG
RNA 2: GGGAAUGGAUCCACAUCUACGAAUUCGUACCAUAGAGAGAGUUAUCACGCUCACCGAGAUCGGAAGAGCACACGU
B6: target 1 del1,del13 (mixed)
RNA 1: CACCCGUGCAAAAAUGCAGGGGUCUAAAACUGAGCGGAUAACCUCUCUAUGG
RNA 2: GGGAAUGGAUCCACAUCUACGAAUUCGUACCAUAGAGAGUUAUCCGCUCCCGAGAUCGGAAGAGCACACGU
B7: target 1 A18U,U19C (mixed)
RNA 1: CACCCGUGCAAAAAUGCAGGGGUCUAAAACUGAGCGGAUAACCUCUCUAUGG
RNA 2: GGGAAUGGAUCCACAUCUACGAAUUCGUACCACUGAGAGGUUAUCCGCUCACCGAGAUCGGAAGAGCACACGU
B8: target 1 del2,del13 (mixed)
RNA 1: CACCCGUGCAAAAAUGCAGGGGUCUAAAACUGAGCGGAUAACCUCUCUAUGG
RNA 2: GGGAAUGGAUCCACAUCUACGAAUUCGUACCAUAGAGAGUUAUCCGCUACCGAGAUCGGAAGAGCACACGU
B9: target 1 insG 3' of 18,insU 3' of 2 (mixed)
RNA 1: CACCCGUGCAAAAAUGCAGGGGUCUAAAACUGAGCGGAUAACCUCUCUAUGG
RNA 2: GGGAAUGGAUCCACAUCUACGAAUUCGUACCAUAGGAGAGGUUAUCCGCUCUACCGAGAUCGGAAGAGCACACGU
B10: target 1 C7G,G15U (mixed)
RNA 1: CACCCGUGCAAAAAUGCAGGGGUCUAAAACUGAGCGGAUAACCUCUCUAUGG
RNA 2: GGGAAUGGAUCCACAUCUACGAAUUCGUACCAUAGAUAGGUUAUGCGCUCACCGAGAUCGGAAGAGCACACGU
B11: target 1 U3C,C7U (mixed)
RNA 1: CACCCGUGCAAAAAUGCAGGGGUCUAAAACUGAGCGGAUAACCUCUCUAUGG
RNA 2: GGGAAUGGAUCCACAUCUACGAAUUCGUACCAUAGAGAGGUUAUUCGCCCACCGAGAUCGGAAGAGCACACGU
B12: target 1 del19 (mixed)
RNA 1: CACCCGUGCAAAAAUGCAGGGGUCUAAAACUGAGCGGAUAACCUCUCUAUGG
RNA 2: GGGAAUGGAUCCACAUCUACGAAUUCGUACCAAGAGAGGUUAUCCGCUCACCGAGAUCGGAAGAGCACACGU
B13: target 1 A16G,C21A (mixed)
RNA 1: CACCCGUGCAAAAAUGCAGGGGUCUAAAACUGAGCGGAUAACCUCUCUAUGG
RNA 2: GGGAAUGGAUCCACAUCUACGAAUUCGUACAAUAGGGAGGUUAUCCGCUCACCGAGAUCGGAAGAGCACACGU

The target in this series is T1, EsCas13d, nuclease-dead (Eubacterium siraeum, UniProt B0MS50, R295A;H300A;R849A;H854A).
T1 sequence: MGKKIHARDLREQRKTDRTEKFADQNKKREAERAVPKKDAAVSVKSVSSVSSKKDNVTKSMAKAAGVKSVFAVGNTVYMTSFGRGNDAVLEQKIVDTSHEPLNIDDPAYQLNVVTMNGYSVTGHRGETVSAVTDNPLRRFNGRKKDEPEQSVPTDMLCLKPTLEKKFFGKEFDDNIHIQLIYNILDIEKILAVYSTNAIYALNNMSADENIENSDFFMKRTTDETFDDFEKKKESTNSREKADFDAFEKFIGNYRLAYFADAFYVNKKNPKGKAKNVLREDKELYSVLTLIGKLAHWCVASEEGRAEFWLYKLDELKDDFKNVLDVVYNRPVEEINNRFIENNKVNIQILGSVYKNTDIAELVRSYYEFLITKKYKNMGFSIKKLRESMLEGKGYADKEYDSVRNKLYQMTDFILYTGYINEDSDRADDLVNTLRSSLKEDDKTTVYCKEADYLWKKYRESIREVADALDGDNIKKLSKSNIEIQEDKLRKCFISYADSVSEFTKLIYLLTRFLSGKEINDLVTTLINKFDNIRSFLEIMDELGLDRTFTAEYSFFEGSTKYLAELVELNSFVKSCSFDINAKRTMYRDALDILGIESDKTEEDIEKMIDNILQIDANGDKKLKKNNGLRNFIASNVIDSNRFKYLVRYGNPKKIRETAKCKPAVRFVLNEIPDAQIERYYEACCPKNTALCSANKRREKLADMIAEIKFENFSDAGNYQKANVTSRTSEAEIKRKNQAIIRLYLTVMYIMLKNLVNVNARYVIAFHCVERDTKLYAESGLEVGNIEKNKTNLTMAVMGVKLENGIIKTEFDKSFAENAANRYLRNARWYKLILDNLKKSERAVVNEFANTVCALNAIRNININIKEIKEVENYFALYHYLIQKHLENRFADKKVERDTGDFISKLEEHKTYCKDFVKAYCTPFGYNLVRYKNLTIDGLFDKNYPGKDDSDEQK
Briefly: crRNA (strand 1, pre-loaded); Mg2+; 40 mM Tris-HCl pH 7.5, 150 mM NaCl, 6 mM MgCl2, 1 mM DTT, 0.1% Tween-20, 0.2 mg/ml BSA; 25 C; 10 min per concentration, then washed. The conditions noted are these: tags: His6-TwinStrep-SUMO cleaved; N-terminal SNAP kept (SNAP-Surface 488); label: 3' end held by stalled T7 RNA polymerase.
B1 returned a Kd of 13.6 ± 0.9 nM.

B2: the Kd worked out at 5.7 ± 0.4 nM. Against the preceding molecule, the Kd is about 2.4-fold lower.

B3 had a Kd of 13.1 ± 0.7 nM.

In turn, B4 displayed a Kd of 10.1 ± 0.5 nM.

For B5, binding was characterised by a dissociation constant (Kd) of 4.06 ± 0.21 nM. Compared with the last molecule, the Kd is about 2.5-fold lower.

The molecule B6 had a Kd of 25 ± 4 nM.

Molecule B7 showed a Kd of 64 ± 16 nM.

Molecule B8 came in with a Kd of 11.7 ± 0.4 nM.

B9: the Kd was 84 ± 26 nM.

In turn, B10 yielded a Kd of 30 ± 4 nM.

As for B11, the Kd is 19.6 ± 2.2 nM.

For B12, the Kd turned out to be 26.4 ± 2.2 nM.

Molecule B13 gave a Kd of 48 ± 11 nM.
